B1: AtICS1 (His6-AtICS1, ICS1) (Arabidopsis thaliana) (protein)
chain: MNGCDGDFKTPLGTVETRTMTAVLSPAAATERLISAVSELKSQPPSFSSGVVRLQVPIDQQIGAIDWLQAQNEIQPRCFFSRRSDVGRPDLLLDLANENGNGNGNGTVSSDRNLVSVAGIGSAVFFRDLDPFSHDDWRSIRRFLSSTSPLIRAYGGMRFDPNGKIAVEWEPFGAFYFSVPQVEFNEFGGSSMLAATIAWDDELSWTLENAIEALQETMLQVSSVVMKLRNRSLGVSVLSKNHVPTKGAYFPAVEKALEMINQKSSPLNKVVLARNSRIITDTDIDPIAWLAQLQREGHDAYQFCLQPPGAPAFIGNTPERLFQRTQLGVCSEALAATRPRAASSARDMEIERDLLTSPKDDLEFSIVRENIREKLNGICDRVVVKPQKTVRKLARVQHLYSQLAGRLTKEDDEYKILAALHPTPAVCGLPAEEARLLIKEIESFDRGMYAGPIGFFGGEESEFAVGIRSALVEKGLGALIYAGTGIVAGSDPSSEWNELDLKISQFTKSIEYEATTSLQAIN
notes: transit peptide removed (forward primer encodes MNGCDG start), N-terminal His6 tag from pET-28a TEV, no tag cleavage described; E. coli Rosetta DE3 pLysS; ~60 kDa; monomer
B2: AtICS2 (His6-AtICS2, ICS2) (Arabidopsis thaliana) (protein)
chain: MNGCEADHKAPLGTVETRTLSTVPSPAAATERLITAVSDLKSQPPPFSSGIVRLQVPIEQKIGAIDWLHAQNEILPRSFFSRRSDSGRPDLLQDFSSDNGSSDHNPVSVAGIGSAVFFRDLDPFSHDDWRSIRRFLSSKSPLIRAYGGLRFDPTGKIAVEWEHFGSFYFTVPQVEFDEFGGSSMLAATVAWDNELSWTLENAIEALQETMLQVSSVIMRLRRESLGVIVVSKNHVPSEGAYYPAVNNALEIIKDKHSPLSKVVLARSSRIITDTDIDPIAWLARLQCEGQDAYQFCLQPPGAPAFIGNTPERLFHRKHLGVCSEALAATRPRGDSKVREMEIERDLLTSPKDDLEFSIVRENIREKLKTICDRVVVKPHKSVRKLARVQHLYSQLAGQLKREDDEFNILTALHPTPAVCGCPVEEARLLIKQIESFDRGMYAGPIGFFGGGESEFSVGIRSALVEKGLGALIYAGTGIVSGSNPSSEWNELELKISQFTKSLEHESALQPIN
notes: transit peptide removed (forward primer encodes MNGCEA start), N-terminal His6 tag from pET-28a TEV, no tag cleavage described; E. coli Rosetta DE3 pLysS; ~60 kDa; monomer

Legend:
[1] = substrate: C=C(O[C@@H]1C=C(C(=O)O)C=C[C@H]1O)C(=O)O; assay: coupled fluorimetric assay with PchB (salicylate formation); assay type: biochemical, Arabidopsis thaliana; conditions: 100 mM Tris-HCl pH 7.7, 10 mM MgCl2, 30°C, 1 µM His6-PchB, 100 nM enzyme
Text: coupled fluorimetric assay with PchB (salicylate formation) on AtICS1 (His6-AtICS1, ICS1)

[2] = substrate: C=C(O[C@@H]1C=C(C(=O)O)C=C[C@H]1O)C(=O)O; assay: as above; assay type: biochemical, Arabidopsis thaliana; conditions: 100 mM Tris-HCl pH 7.7, 10 mM MgCl2, 30°C, 1 µM His6-PchB, 100 nM enzyme; remark: listed apart in the source
Text: coupled fluorimetric assay with PchB (salicylate formation) on AtICS2 (His6-AtICS2, ICS2)

Protein | Km [1] | kcat [1] | kcat/Km [1] | Km [2] | kcat [2] | kcat/Km [2]
B1 | 34.3 ± 3.7 µM | 0.635 ± 0.025 s⁻¹ | 18500 ± 217 M⁻¹ s⁻¹ | – | – | –
B2 | – | – | – | 28.8 ± 6.9 µM | 0.283 ± 0.02 s⁻¹ | 9830 ± 1030 M⁻¹ s⁻¹
